Reference: patent publication US20200002710A1, “SYSTEMS AND METHODS FOR CONTROL OF GENE EXPRESSION” (TRUSTEES OF BOSTON UNIVERSITY, published 2020)

Experiments:
[1] = test system: 43-8 low affinity synTF + 3x syntrophin PDZ clamp (artificial); assay: FP; conditions: nH 2.55; synTF titration with 3-PDZ clamp
[2] = target: T1, MBP-syn. (MBP fusion of the syntrophin PDZ domain) (Oryctolagus cuniculus (Rabbit), UniProt Q28626 83-177); assay: fluorescence anisotropy competition; 43-8 synTF-ligand fusion titrated against MBP-syntrophin PDZ and FITC-VKESLV probe
T1 construct: Used as an MBP fusion in the PDZ-ligand anisotropy assays; also called MBP-PDZ; pCB378
T1 sequence: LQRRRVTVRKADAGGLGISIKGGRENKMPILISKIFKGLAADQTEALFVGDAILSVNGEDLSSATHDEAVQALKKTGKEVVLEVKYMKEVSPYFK
Protocol: (§1) Probe concentration was assessed by measuring Abs490. Competitor peptides were purified as MBP-ZF43-8 fusions (see e.g., FIG. 5A-FIG. 5B, FIG. 7A-FIG. 7B).
(§2) All assays were conducted in 20 mM Tris, pH 7.5, 100 mM […], 50 μM ZnCl2 buffer at 25° C. Proteins, probes, and competitor oligos were added to a final volume of 300 μL. Probes were used at 10 nM in all experiments. For complex assembly experiments (FIG. 1C), indicated concentrations of MBP-ZF₄₃₋₈ harboring a VSKESLV* ligand (SEQ ID NO: 120) (see e.g., FIG. 5A-FIG. 5B, FIG. 7A-FIG. 7B) were titrated against 5 μM concentrations of clamp. Mixtures were allowed to equilibrate at 25° C. for 10 min in Costar black 96-well plates prior to reading. Fluorescence anisotropy (FA) measurements were made at 494 nm using a SpectraMax M5 (Molecular Devices) fluorescence plate reader. For all measurements, anisotropy (r) was calculated using the following equation, wherein I_{∥} and I_{⊥} are parallel and perpendicular fluorescence, respectively:
(§3) PDZ-ligand binding constants were measured in vitro by fluorescence anisotropy. Recombinant proteins were purified as described herein. […] Peptide probe binding to PDZ domain was measured. […] Kₐ values were extracted by fitting data to a quadratic binding equation (data not shown). Competition binding experiments were conducted to measure binding constants for ligand affinity variants. […] accompanying displacement of the probe by the competitor was measured, and competitor ligand Kd values were extracted by fitting data (converted to fraction probe bound) to a cubic equation describing competitive binding (see e.g., FIG. 7A).

[3] = target: T2, MBP-erb. (MBP fusion of the erbin PDZ domain) (Mus musculus (Mouse), UniProt Q80TH2 1304-1387, limits assumed); assay: fluorescence anisotropy competition; 43-8 synTF-ligand fusion titrated against MBP-erbin PDZ and FITC peptide probe
T2 construct: also called MBP-PDZ; pCB425
T2 chain: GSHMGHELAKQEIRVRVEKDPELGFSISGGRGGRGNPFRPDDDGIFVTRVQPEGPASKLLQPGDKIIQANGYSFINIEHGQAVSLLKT
Protocol: as §1, §2, §3

[4] = target: T3, MBP-syn. (MBP fusion of the syntrophin PDZ domain) (UniProt Q28626 83-177); assay: thermodynamic model fit; model-fitted
T3 chain: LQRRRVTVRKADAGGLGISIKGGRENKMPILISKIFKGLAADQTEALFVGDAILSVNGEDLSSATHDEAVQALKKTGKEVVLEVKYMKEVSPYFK

[5] = target: T1, MBP-syn. (MBP fusion of the syntrophin …); assay: fluorescence anisotropy competition (nb indicates no binding)
Protocol: as §1, §2, §3

[6] = target: T2, MBP-erb. (MBP fusion of the erbin PDZ …); assay: as above
Protocol: as §1, §2, §3

[7] = target: T3, MBP-syn. (MBP fusion of the syntrophin …); assay: fluorescence anisotropy competition; experimentally-measured
[8] = target: T4, 42-10 (ZF2) low affinity synTF (artificial, R-to-A backbone (low affinity allele, already in ref)); assay: FP; fluorescence anisotropy competition; Zn2+, 25 C; conditions: tags: N-terminal MBP; C-terminal GS linker + syntrophin ligand S5 (VKESLV)
T4 chain: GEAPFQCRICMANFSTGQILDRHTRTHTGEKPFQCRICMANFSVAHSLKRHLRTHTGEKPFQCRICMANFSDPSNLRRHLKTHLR
Protocol: (§4) Sequences for both sets of DBM affinity variants are listed on the right. Residues mutated from the WT sequence are indicated by bold type.
as §2
(§5) TF-DBM binding constants were measured in vitro by fluorescence anisotropy (FA). Recombinant proteins were purified and DBM oligos prepared as described herein. […] Affinities for the interaction were measured as a function of the increase in fluorescence anisotropy resulting from binding of the fusion to a fluorescently labeled (FITC) oligo probe (data not shown). Oligo probe binding to ZF affinity variants was measured. MBP-ZF was titrated against 10 nM oligo probe. […] Kd values were extracted by fitting data to a quadratic binding equation (data not shown). Competition binding experiments were performed to measure binding constants for DBM affinity variants.

[9] = target: T5, 42-10 (ZF2) high affinity synTF (artificial); assay: FP; fluorescence anisotropy competition; 20 mM Tris pH 7.5, 100 mM NaCl, 50 uM ZnCl2, 25 C; conditions: tags: N-terminal MBP; C-terminal GS linker + syntrophin ligand S5 (VKESLV)
T5 chain: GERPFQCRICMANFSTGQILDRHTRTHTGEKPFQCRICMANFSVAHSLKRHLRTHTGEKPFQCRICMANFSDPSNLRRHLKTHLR
Protocol: as §4, §2
TF-DBM binding constants were measured in vitro by fluorescence anisotropy (FA). Recombinant proteins were purified and DBM oligos prepared as described herein. […] Affinities for the interaction were measured as a function of the increase in fluorescence anisotropy resulting from binding of the fusion to a fluorescently labeled (FITC) oligo probe (data not shown). Oligo probe binding to ZF affinity variants was measured. […]

[10] = target: T6, 43-8 (ZF1) low affinity synTF (artificial, R-to-A backbone (low affinity allele, already in ref)); assay: FP; fluorescence anisotropy competition; Zn2+, 25 C; conditions: tags: N-terminal MBP; C-terminal GS linker + syntrophin ligand S5 (VKESLV)
T6 chain: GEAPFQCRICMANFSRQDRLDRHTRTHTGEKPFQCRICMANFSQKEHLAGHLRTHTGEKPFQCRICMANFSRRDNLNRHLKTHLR
Protocol: as §4, §2, §5

[11] = target: T7, 43-8 (ZF1) high affinity synTF (artificial); assay: as above; conditions: tags: N-terminal MBP; C-terminal GS linker + syntrophin ligand S5 (VKESLV)
T7 chain: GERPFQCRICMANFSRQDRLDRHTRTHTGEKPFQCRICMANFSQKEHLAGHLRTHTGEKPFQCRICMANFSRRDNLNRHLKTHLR
Protocol: as §4, §2, §5

[12] = target: T6, 43-8 (ZF1) low affinity synTF; assay: FP; no clamp; nH 1.07; conditions: tags: N-terminal MBP; C-terminal GS linker + syntrophin ligand S5 (VKESLV); label: fluorescein on bottom-strand thymidine
Protocol: as §2, with “respectively: […]” for “respectively:”

How did the EC50 [1] turn out when “GAATTCGTCCTCACTCTTCGGTCCTCACTCTTCGGTCCTCACTCTGGATCC (double strand) [43-8 nc=3 probe]” was run?
Its EC50 is 5.1 nM.

B1: MBP-43-8(low)-syn. lig. (S4) (other, not shown: large carriers)
chain: GEAPFQCRICMANFSRQDRLDRHTRTHTGEKPFQCRICMANFSQKEHLAGHLRTHTGEKPFQCRICMANFSRRDNLNRHLKTHLRGSGSGIRETIV
notes: also called IRETIV; pCB384
Which results are given for B1?
Kd [2]: 880 nM; Kd [3]: 3460 nM; Kd [4]: 400 nM

B2: 43-8 synTF with appended erbin ligand E1 (WLVTWV) (other, not shown: large carriers)
chain: GEAPFQCRICMANFSRQDRLDRHTRTHTGEKPFQCRICMANFSQKEHLAGHLRTHTGEKPFQCRICMANFSRRDNLNRHLKTHLRGSGSGWLVTWV
Which Kd [3] does the source give for B2 here?
Its Kd is 100 nM.

Does B2 bind [5]?
Result: no binding

B3: 43-8 synTF with appended erbin ligand E2 (WLKTWV) (other, not shown: large carriers)
chain: GEAPFQCRICMANFSRQDRLDRHTRTHTGEKPFQCRICMANFSQKEHLAGHLRTHTGEKPFQCRICMANFSRRDNLNRHLKTHLRGSGSGWLKTWV
With B3 as the molecule, how does the Kd [3] read?
The Kd was 330 nM.

Does B3 bind [5]?
Result: no binding

B4: 43-8 synTF with appended erbin ligand E3 (PVDSWV) (other, not shown: large carriers)
chain: GEAPFQCRICMANFSRQDRLDRHTRTHTGEKPFQCRICMANFSQKEHLAGHLRTHTGEKPFQCRICMANFSRRDNLNRHLKTHLRGSGSGPVDSWV
What does the source list for B4?
Kd [2]: 1570 nM; Kd [3]: 420 nM

B5: MBP-43-8(low)-syn. lig. (S1) (other, not shown: large carriers)
chain: GEAPFQCRICMANFSRQDRLDRHTRTHTGEKPFQCRICMANFSQKEHLAGHLRTHTGEKPFQCRICMANFSRRDNLNRHLKTHLRGSGSGIRETII
notes: also called IRETII; pCB380
For B5, which Kd [2] is on record?
Its Kd is 62 nM.

Does B5 bind [6]?
Result: no binding

B6: MBP-43-8(low)-syn. lig. (S2) (other, not shown: large carriers)
chain: GEAPFQCRICMANFSRQDRLDRHTRTHTGEKPFQCRICMANFSQKEHLAGHLRTHTGEKPFQCRICMANFSRRDNLNRHLKTHLRGSGSGIRETIL
notes: also called IRETIL; pCB381
How did the Kd [2] turn out when B6 was run?
The Kd was 180 nM.

Does B6 bind [6]?
Result: no binding

B7: MBP-43-8(low)-syn. lig. (S3) (other, not shown: large carriers)
chain: GEAPFQCRICMANFSRQDRLDRHTRTHTGEKPFQCRICMANFSQKEHLAGHLRTHTGEKPFQCRICMANFSRRDNLNRHLKTHLRGSGSGIRWTIV
notes: also called IRWTIV; pCB382
What does the source list for B7?
Kd [2]: 490 nM; Kd [3]: 1730 nM

B8: MBP-43-8(low)-syn. lig. (S5) (other, not shown: large carriers)
chain: GEAPFQCRICMANFSRQDRLDRHTRTHTGEKPFQCRICMANFSQKEHLAGHLRTHTGEKPFQCRICMANFSRRDNLNRHLKTHLRGSGSGVKESLV
notes: also called VKESLV; pCB385
For B8, which Kd [2] is on record?
The Kd was 1970 nM.

And the Kd [3]?
The Kd was 5710 nM.

And the Kd [4]?
The Kd was 2050 nM.

B9: MBP-43-8(low)-syn. lig. (S6) (other, not shown: large carriers)
chain: GEAPFQCRICMANFSRQDRLDRHTRTHTGEKPFQCRICMANFSQKEHLAGHLRTHTGEKPFQCRICMANFSRRDNLNRHLKTHLRGSGSGVKEALV
notes: also called VKEALV; pCB386
Which Kd [2] does the source give for B9 here?
Its Kd is 27300 nM.

Does B9 bind [6]?
Result: no binding

And the Kd [7]?
The Kd was 20300 nM.

B10: MBP-43-8(low)-syn. lig. (S7) (other, not shown: large carriers)
chain: GEAPFQCRICMANFSRQDRLDRHTRTHTGEKPFQCRICMANFSQKEHLAGHLRTHTGEKPFQCRICMANFSRRDNLNRHLKTHLRGSGSGHLETFF
notes: also called HLETFF; pCB387
B10 was tested. Which Kd [2] did it give?
The Kd was 43200 nM.

Does B10 bind [6]?
Result: no binding

B11: MBP-43-8(low)-syn. lig.(no bind) (other, not shown: large carriers; small tags and cut ends)
chain: GEAPFQCRICMANFSRQDRLDRHTRTHTGEKPFQCRICMANFSQKEHLAGHLRTHTGEKPFQCRICMANFSRRDNLNRHLKTHLRGSGSGVKEAAA
notes: also called VKEAAA; nb
Does B11 bind [6]?
Result: no binding

B12: 42-10 DBM2 (dsDNA)
DNA 1: TGACGCTGCTT
DNA 2: AAGCAGCGTCA
For B12, which Kd [8] is on record?
Its Kd is 5.2 nM.

And the Kd [9]?
Its Kd is 0.94 nM.

B13: 42-10 DBM5 (dsDNA)
DNA 1: AGACGCTACTC
DNA 2: GAGTAGCGTCT
How did the Kd [8] turn out when B13 was run?
The Kd was 95 nM.

B14: 43-8 DBM2 (dsDNA)
DNA 1: ACAGTGAGGAC
DNA 2: GTCCTCACTGT
B14 was tested. Which Kd [10] did it give?
Its Kd is 143 nM.

What about the Kd [11] of the same molecule?
The Kd was 30 nM.

B15: 42-10 DBM6 (dsDNA)
DNA 1: AGACGCTGCTA
DNA 2: TAGCAGCGTCT
For B15, which Kd [8] is on record?
The Kd was 218 nM.

B16: 43-8 DBM3 (dsDNA)
DNA 1: ATAGTGAGGAC
DNA 2: GTCCTCACTAT
How did the Kd [10] turn out when B16 was run?
The Kd was 224 nM.

And the Kd [11]?
Its Kd is 42 nM.

B17: 42-10 DBM7 (dsDNA)
DNA 1: AGACTCTGCTC
DNA 2: GAGCAGAGTCT
With B17 as the molecule, how does the Kd [8] read?
The Kd was 415 nM.

B18: 43-8 nc=2 probe (dsDNA)
DNA 1: GAATTCGTCCTCACTCTTCGGTCCTCACTCTGGATCC
DNA 2: GGATCCAGAGTGAGGACCGAAGAGTGAGGACGAATTC
Which EC50 [12] does the source give for B18 here?
The EC50 was 210 nM.

B19: 42-10 DBM3 (dsDNA)
DNA 1: AGACGGTGCTC
DNA 2: GAGCACCGTCT
How did the Kd [8] turn out when B19 was run?
Its Kd is 32 nM.

B20: 42-10 DBM4 (dsDNA)
DNA 1: ACACGCTGCTC
DNA 2: GAGCAGCGTGT
With B20 as the molecule, how does the Kd [8] read?
The Kd was 67 nM.
